Assay results as given in patent US20240279630, “ISOLATED CAS13 PROTEIN AND USE THEREOF” (GUANGZHOU REFORGENE MEDICINE CO., LTD., published 2024).

Tests used:
CasRx (Cas13d) = test: cell_activity
Cas13m.2 = target: T1, Cas13m.2 (metagenome); test: cell_activity; 293T, 72 h; conditions: tags: NLS fusion
T1 chain: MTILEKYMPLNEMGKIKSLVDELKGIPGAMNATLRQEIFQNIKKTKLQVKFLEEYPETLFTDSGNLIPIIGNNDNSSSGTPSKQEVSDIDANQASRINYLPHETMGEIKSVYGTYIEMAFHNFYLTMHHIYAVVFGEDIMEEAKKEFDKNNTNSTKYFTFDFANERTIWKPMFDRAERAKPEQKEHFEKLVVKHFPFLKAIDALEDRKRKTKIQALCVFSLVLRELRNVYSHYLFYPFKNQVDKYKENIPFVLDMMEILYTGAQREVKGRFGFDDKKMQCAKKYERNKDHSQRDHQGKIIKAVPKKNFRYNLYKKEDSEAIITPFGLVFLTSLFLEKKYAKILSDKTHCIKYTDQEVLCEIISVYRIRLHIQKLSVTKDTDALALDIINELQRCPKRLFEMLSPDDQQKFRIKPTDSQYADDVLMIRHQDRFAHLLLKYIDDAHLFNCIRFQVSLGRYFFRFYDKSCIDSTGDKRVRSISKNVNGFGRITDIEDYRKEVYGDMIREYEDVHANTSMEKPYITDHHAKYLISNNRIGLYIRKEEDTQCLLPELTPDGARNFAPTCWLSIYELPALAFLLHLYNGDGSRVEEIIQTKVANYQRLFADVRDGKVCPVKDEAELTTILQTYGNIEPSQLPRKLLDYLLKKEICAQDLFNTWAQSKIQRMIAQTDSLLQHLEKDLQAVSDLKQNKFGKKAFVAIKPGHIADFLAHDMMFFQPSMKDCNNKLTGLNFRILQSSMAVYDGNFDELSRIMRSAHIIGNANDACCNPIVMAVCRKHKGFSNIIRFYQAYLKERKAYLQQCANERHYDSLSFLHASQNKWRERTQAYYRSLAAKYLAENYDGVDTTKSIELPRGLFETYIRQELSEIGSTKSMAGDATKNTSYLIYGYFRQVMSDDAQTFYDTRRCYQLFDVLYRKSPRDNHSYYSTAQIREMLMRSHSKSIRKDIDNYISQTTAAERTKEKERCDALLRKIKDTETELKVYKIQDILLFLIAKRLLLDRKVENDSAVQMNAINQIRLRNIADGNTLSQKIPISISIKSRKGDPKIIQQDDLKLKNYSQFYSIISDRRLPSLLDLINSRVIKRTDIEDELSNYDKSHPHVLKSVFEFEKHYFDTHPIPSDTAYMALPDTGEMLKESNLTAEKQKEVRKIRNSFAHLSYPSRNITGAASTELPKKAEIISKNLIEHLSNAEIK
Description: (§1) The 293T cells were transfected with the PTBP1-targeting plasmids of Cas13 m.2, Cas13 m.3, Cas13 m.5, CasRfg.2 and CasRx at 800 ng in a 24-well plate. The negative control group was transfected with the CasRx-BpiI plasmid.
(§2) The transfection method was as follows: [0276] 1) The cells were digested by trypsin (0.25% of Trypsin, EDTA, Thermo, 11058021), counted, and plated into a 24-well plates at 2×10⁵ cells according to 500 uL per well. [0277] 2) For each transfected sample, the complex was prepared according to the following steps: [0278] a. each well of the 24-well plate into which the cells were added, were added with 50 uL of serum-free Opti-MEM I (Thermo, 25200056) reduced serum medium for dilution of the aforementioned plasmid DNA, and mixed gently; [0279] b. it was gently mixed with Lipofectamine 2000 (Thermo, 11668019) before use, and then 1.8 uL of the Lipofectamine 2000 was diluted in each well, i.e., in 50 uL of the Opti-MEM I medium. It was incubated at room temperature for 5 minutes. Note: it was continued to perform step c within 25 minutes; [0280] c. after incubation for 5 minutes, the diluted DNA was combined with the diluted Lipofectamine 2000. They were gently mixed and incubated at room temperature for 20 minutes (the solution might be cloudy visually). Note: the complex was stabilized at room temperature for 6 hours.
(§3) The complex was added into the cells and mixed, and then detected with a QuantStudio™ 5 Real-Time PCR System, 96-well after 72 h.

Cas13m.3 = target: T2, Cas13m.3 (uncultured Bacteroidetes bacterium); test: cell_activity; 293T, 72 h; conditions: tags: NLS fusion
T2 chain: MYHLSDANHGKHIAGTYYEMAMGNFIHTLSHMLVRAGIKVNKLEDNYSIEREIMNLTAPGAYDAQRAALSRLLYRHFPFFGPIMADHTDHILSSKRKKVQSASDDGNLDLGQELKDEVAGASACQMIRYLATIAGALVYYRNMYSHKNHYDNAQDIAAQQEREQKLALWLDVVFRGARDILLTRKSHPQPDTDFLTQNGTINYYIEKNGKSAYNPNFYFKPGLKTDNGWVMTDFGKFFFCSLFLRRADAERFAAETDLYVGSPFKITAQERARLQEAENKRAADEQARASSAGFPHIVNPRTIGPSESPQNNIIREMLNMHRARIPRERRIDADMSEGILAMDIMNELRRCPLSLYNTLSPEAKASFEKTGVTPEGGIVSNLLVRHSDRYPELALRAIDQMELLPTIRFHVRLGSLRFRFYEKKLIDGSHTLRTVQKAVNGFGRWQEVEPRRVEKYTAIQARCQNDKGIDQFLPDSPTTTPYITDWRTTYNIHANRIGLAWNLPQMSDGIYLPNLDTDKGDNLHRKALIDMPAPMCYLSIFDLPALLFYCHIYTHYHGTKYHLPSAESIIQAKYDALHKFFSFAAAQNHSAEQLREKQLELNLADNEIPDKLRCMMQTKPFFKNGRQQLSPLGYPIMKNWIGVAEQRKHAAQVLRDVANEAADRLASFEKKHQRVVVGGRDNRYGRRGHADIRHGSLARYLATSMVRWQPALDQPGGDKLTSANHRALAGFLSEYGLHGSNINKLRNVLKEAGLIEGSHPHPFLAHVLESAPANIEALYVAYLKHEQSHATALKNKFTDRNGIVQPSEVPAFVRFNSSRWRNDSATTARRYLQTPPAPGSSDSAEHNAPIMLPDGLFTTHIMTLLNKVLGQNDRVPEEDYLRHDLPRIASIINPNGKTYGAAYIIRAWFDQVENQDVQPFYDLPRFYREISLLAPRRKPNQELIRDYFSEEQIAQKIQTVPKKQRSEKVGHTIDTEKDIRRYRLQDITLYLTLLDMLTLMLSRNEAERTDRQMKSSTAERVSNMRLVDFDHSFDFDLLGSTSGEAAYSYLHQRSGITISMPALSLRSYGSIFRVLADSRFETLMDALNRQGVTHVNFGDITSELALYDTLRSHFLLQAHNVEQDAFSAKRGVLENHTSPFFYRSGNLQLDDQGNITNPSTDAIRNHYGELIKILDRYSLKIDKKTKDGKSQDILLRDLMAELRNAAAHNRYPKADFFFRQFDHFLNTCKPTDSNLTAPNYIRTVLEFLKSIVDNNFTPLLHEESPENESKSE
Description: as §1, §2, §3

Cas13m.5 = target: T3, Cas13m.5 (Bacteroidetes bacterium); test: cell_activity; 293T, 72 h; conditions: tags: NLS fusion
T3 chain: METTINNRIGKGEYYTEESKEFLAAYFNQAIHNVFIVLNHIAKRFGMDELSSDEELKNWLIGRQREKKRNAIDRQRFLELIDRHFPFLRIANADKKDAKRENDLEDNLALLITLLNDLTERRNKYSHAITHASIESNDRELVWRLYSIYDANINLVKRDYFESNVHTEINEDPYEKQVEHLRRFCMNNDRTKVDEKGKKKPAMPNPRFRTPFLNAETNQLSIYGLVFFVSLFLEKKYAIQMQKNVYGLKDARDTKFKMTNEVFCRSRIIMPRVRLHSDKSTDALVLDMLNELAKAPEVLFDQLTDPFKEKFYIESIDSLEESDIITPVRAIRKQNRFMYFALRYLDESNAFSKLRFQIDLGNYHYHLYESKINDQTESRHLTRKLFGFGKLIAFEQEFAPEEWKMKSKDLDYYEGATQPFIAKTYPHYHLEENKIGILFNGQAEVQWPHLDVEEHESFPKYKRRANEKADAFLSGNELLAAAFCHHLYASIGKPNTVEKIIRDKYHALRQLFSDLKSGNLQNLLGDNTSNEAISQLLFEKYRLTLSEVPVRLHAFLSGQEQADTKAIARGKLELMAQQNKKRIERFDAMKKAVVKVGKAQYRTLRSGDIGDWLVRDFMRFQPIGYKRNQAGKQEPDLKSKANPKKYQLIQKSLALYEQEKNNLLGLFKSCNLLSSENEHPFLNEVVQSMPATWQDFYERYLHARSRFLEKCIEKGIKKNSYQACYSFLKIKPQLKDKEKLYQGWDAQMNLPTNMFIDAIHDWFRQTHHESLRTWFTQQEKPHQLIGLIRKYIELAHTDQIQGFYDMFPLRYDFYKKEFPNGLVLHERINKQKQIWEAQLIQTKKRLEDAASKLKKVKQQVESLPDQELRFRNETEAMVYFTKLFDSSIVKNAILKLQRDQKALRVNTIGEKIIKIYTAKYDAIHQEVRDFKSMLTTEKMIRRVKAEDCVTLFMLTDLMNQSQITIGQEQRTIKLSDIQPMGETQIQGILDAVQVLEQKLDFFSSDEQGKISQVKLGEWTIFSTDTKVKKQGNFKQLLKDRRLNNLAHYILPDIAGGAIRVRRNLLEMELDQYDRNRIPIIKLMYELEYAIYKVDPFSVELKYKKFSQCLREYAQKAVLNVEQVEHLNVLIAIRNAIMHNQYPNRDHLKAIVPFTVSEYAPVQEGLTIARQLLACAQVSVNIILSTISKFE
Description: as §1, §2, §3

CasRfg.2 (Cas13d) = target: T4, CasRfg.2 (Cas13d) (metagenome); test: cell_activity; 293T, 72 h; conditions: tags: NLS fusion
T4 chain: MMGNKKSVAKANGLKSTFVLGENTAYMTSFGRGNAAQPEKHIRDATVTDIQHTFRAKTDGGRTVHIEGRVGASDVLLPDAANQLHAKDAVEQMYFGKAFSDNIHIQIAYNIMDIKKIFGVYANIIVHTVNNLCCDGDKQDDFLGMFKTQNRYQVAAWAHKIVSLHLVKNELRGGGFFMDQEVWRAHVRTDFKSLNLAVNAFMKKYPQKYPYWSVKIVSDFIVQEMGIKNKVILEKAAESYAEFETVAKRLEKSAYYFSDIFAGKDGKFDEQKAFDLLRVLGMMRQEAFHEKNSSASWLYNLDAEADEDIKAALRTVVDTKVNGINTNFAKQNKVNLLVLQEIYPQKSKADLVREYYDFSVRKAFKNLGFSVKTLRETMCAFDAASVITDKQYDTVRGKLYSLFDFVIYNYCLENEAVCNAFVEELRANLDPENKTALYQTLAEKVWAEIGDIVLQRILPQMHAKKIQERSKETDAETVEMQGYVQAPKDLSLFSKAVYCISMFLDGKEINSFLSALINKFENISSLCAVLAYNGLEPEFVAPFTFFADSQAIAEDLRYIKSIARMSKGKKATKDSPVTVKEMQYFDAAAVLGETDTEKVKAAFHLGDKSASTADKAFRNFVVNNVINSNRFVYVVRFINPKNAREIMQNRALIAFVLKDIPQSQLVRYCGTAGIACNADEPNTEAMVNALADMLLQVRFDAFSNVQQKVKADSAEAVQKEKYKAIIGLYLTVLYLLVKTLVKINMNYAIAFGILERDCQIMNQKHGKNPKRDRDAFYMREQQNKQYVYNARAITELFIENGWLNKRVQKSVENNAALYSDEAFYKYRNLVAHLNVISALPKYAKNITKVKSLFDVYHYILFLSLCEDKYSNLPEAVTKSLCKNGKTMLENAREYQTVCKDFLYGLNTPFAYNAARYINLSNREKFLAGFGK
Description: as §1, §2, §3

In the case of “GAAGACAAAGAGGGUCGUGG / CCACGACCCUCUUUGUCUUC”, the activity (relative mRNA level) (CasRx (Cas13d); 293T-AQp1, 72 h) is reported as 0.05.

Molecule “AGGGCAGAACCGAUGCUGAUGAAGAC / GUCUUCAUCAGCAUCGGUUCUGCCCU” has an activity (relative mRNA level) (CasRx (Cas13d); control 1.00) of 0.03.

Molecule “GUGGUUGGAGAACUGGAUGUAGAUGGGCUG / CAGCCCAUCUACAUCCAGUUCUCCAACCAC [PTBP1 gRNA CasRx (guide part only) ; PTBP1 mRNA site]” has an activity (relative mRNA level) (CasRx (Cas13d); 293T, 72 h, 0.59 in Table 10) of 0.6.

B1: PTBP1 gRNA Cas13m.2 ; PTBP1 mRNA site (ssRNA ; ssRNA)
RNA 1: GUGGUUGGAGAACUGGAUGUAGAUGGGCUGGUUGUAGAUGACCUCGUUUUGGAGGGGAAACACAAC
RNA 2: CAGCCCAUCUACAUCCAGUUCUCCAACCAC
B1 showed an activity (Cas13m.2) of 0.49 relative mRNA level.

B2: PTBP1 gRNA Cas13m.3 ; PTBP1 mRNA site (ssRNA ; ssRNA)
RNA 1: GUGGUUGGAGAACUGGAUGUAGAUGGGCUGGUUGUAGAAGCCGUUCAUUCGGGACGGUAUGACAAC
RNA 2: B1 RNA 2
Work on B2 yielded an activity (Cas13m.3) of 0.46 relative mRNA level.

B3: PTBP1 gRNA Cas13m.5 ; PTBP1 mRNA site (ssRNA ; ssRNA)
RNA 1: GUGGUUGGAGAACUGGAUGUAGAUGGGCUGGUUGUGUGUGCCUUUCAAAUUGAAGGCGUUCCCAAC
RNA 2: B1 RNA 2
Molecule B3 has an activity (Cas13m.5) of 0.7 relative mRNA level.

B4: PTBP1 gRNA CasRfg.2 ; PTBP1 mRNA site (ssRNA ; ssRNA)
RNA 1: GGUUUUACACCCGUGUAAAACUACACAGUUCUAAAACGUGGUUGGAGAACUGGAUGUAGAUGGGCUG
RNA 2: B1 RNA 2
In the case of B4, the activity (CasRfg.2 (Cas13d)) is reported as 0.78 relative mRNA level.
